The values below come from US12201676B2, “Composition comprising diamine oxidase for use in the treatment or prevention of fibromyalgia or chronic fatigue syndrome” (DR HEALTHCARE ESPAÑA, S.L., priority 2011, dated 2025).

Assay [1] deals with subjects diagnosed with chronic fatigue syndrome and with DAO deficit. The experiment in a line: Efficacy of DAO compositions in chronic fatigue syndrome, grades of improvement on the CLINIC scale. The class given is in vivo, human. Particulars: chronic fatigue syndrome grades II, III and IV with DAO deficit, 4 mg DAO twice a day, count of 23 subjects. The protocol:
Oral compositions containing DAO of the present invention were tested in a total of 46 subjects diagnosed with chronic fatigue syndrome, as out-patients.
To evaluate the degree of affectation of chronic fatigue syndrome in candidate study subjects, the quality of life of these subjects was evaluated using a simple scale of 4 successive grades (I, II, III and IV), with criteria used in the clinic. This scale is used in the Chronic Fatigue Syndrome (CFS) Functional Unit in the Hospital Clinic.
The CLINIC scale consists of dividing the patients with chronic fatigue syndrome into four different grades of functional affectation depending on the effect of their fatigue on quality of life:
GRADE I: the patient is sometimes or occasionally fatigued, without significant limitation (<50%) of work or daily life activities.
GRADE II: persistent presence of fatigue, oscillating but without improvement, with marked effect (>50%) on work and also daily life activities.
GRADE IV: extreme fatigue that requires the help of other people for basic personal activities and that makes autonomy and the activities of daily life impossible.
Improvement is evaluated when the patient passes from a higher to a lower grade in terms of the number of improvement grades.

The next assay concerns histamine level in blood. The experiment in a line: Histamine level in blood of chronic fatigue syndrome subjects. The assay is classed as in vivo, human. Particulars: 4 mg DAO twice a day.

B1: diamine oxidase (protein, UniProt P19801 20-751, looked up)
Diamine oxidase …: EPSPGTLPRKAGVFSDLSNQELKAVHSFLWSKKELRLQPSSTTTMAKNTVFLIEMLLPKKYHVLRFLDKGERHPVREARAVIFFGDQEHPNVTEFAVGPLPGPCYMRALSPRPGYQSSWASRPISTAEYALLYHTLQEATKPLHQFFLNTTGFSFQDCHDRCLAFTDVAPRGVASGQRRSWLIIQRYVEGYFLHPTGLELLVDHGSTDAGHWAVEQVWYNGKFYGSPEELARKYADGEVDVVVLEDPLPGGKGHDSTEEPPLFSSHKPRGDFPSPIHVSGPRLVQPHGPRFRLEGNAVLYGGWSFAFRLRSSSGLQVLNVHFGGERIAYEVSVQEAVALYGGHTPAGMQTKYLDVGWGLGSVTHELAPGIDCPETATFLDTFHYYDADDPVHYPRALCLFEMPTGVPLRRHFNSNFKGGFNFYAGLKGQVLVLRTTSTVYNYDYIWDFIFYPNGVMEAKMHATGYVHATFYTPEGLRHGTRLHTHLIGNIHTHLVHYRVDLDVAGTKNSFQTLQMKLENITNPWSPRHRVVQPTLEQTQYSWERQAAFRFKRKLPKYLLFTSPQENPWGHKRTYRLQIHSMADQVLPPGWQEEQAITWARYPLAVTKYRESELCSSSIYHQNDPWHPPVVFEQFLHNNENIENEDLVAWVTVGFLHIPHSEDIPNTATPGNSVGFLLRPFNFFPEDPSLASRDTVIVWPRDNGPNYVQRWIPEDRDCSMPPPFSYNGTYRPV
notes: Enzyme diamine oxidase
With B1, in assay [1], the “Number of grades of improvement: 1 (subjects)” value is recorded as 16 of 23 and the “Number of grades of improvement: 2 (subjects)” value was 4 of 23. Further, the “Histamine level in blood” value with histamine level in blood was 2-20 micrograms/0.1 L.
